Measurements as given in paper PMC7408665.

molecular target: anti-E7 mAb; assay: ELISA; conditions: read off a plot

Compared with “recombinant His-E7 protein of HPV16 (from UniProt P03129) C24P”, “recombinant His-E7 protein of HPV16 (from UniProt P03129) E10Q” is lower in response: 1.3 OD450 for the first, 1.1 OD450 for the second.

“recombinant His-E7 protein of HPV16 (from UniProt P03129) L22A” and “recombinant His-E7 protein of HPV16 (from UniProt P03129) E18Q” are the same in response: 1 OD450 for the first, 1 OD450 for the second.

“recombinant His-E7 protein of HPV16 (from UniProt P03129) D36H” was tested, and the response was 1.3 OD450.
